Measured values: patent publication US20230340055A1 (published 2023)

Experiments:
Assay in all cases: cell-based or functional assay
[1] = molecular target: T1, IL-2Rβγ (dimeric intermediate affinity IL-2 receptor), human, on cells (human, UniProt P14784 27-551; P31785 23-369)
T1 sequence (looked up) 1: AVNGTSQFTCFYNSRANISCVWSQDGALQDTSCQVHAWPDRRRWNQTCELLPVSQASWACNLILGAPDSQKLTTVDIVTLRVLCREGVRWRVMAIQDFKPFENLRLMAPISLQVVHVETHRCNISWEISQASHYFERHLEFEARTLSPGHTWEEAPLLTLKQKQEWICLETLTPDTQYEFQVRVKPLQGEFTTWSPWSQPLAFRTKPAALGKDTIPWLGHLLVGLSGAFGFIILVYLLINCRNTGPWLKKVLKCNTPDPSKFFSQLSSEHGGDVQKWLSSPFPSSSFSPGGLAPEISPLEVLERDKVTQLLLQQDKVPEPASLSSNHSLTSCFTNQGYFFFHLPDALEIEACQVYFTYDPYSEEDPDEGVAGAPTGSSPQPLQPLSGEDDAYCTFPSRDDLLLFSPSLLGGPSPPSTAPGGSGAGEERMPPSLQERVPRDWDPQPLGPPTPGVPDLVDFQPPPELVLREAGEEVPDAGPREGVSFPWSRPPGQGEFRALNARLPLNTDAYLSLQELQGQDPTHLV
T1 sequence (looked up) 2: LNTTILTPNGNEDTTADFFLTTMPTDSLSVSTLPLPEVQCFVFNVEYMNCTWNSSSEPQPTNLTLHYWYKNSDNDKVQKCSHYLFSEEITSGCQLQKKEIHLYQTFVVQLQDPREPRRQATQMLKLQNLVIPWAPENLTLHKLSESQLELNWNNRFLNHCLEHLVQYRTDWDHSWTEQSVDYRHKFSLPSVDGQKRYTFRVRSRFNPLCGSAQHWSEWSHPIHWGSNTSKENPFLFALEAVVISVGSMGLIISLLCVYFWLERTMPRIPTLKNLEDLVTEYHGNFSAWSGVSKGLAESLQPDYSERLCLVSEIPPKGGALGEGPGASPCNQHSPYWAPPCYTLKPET

[2] = molecular target: T2, IL-2Rαβγ (trimeric high-affinity IL-2 receptor), human, on cells (human, UniProt P01589 22-272; P14784 27-551; P31785 23-369)
T2 sequence (looked up) 1: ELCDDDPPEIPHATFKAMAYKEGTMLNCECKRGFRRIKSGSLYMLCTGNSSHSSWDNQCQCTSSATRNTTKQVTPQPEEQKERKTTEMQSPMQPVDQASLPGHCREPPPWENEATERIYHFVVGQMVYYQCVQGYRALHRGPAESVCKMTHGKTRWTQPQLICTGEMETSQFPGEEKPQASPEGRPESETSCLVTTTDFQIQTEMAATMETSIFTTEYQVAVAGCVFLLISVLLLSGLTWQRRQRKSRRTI
T2 sequence (looked up) 2: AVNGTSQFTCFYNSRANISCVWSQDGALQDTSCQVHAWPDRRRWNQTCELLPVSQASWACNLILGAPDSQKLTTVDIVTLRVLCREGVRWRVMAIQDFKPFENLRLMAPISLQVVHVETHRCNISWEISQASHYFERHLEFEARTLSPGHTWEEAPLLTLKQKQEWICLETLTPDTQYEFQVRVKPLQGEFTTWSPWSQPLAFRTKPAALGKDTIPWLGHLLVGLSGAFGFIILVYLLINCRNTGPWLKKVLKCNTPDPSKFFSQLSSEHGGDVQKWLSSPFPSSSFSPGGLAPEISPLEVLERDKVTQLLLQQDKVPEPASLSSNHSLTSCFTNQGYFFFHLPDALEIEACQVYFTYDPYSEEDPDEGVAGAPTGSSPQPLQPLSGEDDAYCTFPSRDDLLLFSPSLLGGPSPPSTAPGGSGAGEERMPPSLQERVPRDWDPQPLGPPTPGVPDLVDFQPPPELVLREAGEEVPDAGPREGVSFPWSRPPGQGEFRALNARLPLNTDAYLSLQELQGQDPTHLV
T2 sequence (looked up) 3: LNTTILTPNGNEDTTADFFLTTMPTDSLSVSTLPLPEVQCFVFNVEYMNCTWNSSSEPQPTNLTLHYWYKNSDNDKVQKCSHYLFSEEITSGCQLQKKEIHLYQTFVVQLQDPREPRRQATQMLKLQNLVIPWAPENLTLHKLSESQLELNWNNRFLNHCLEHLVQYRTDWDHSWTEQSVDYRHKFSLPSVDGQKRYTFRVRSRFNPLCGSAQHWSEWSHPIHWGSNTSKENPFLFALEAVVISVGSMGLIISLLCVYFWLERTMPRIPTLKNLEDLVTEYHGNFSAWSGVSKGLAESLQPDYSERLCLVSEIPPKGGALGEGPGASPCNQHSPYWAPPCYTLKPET

[3] = molecular target: T3, IL-2-Rα/β/γ on the murine CTLL-2 T lymphocyte cell line (murine, UniProt P01590 22-268; P16297 27-539; P34902 23-369)
T3 sequence (looked up) 1: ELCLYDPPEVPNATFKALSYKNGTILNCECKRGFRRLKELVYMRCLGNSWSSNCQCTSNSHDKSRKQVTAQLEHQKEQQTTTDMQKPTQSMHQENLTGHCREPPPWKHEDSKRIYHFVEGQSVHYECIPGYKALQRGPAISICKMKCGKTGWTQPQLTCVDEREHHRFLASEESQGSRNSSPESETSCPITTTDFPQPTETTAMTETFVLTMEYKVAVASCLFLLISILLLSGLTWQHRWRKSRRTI
T3 sequence (looked up) 2: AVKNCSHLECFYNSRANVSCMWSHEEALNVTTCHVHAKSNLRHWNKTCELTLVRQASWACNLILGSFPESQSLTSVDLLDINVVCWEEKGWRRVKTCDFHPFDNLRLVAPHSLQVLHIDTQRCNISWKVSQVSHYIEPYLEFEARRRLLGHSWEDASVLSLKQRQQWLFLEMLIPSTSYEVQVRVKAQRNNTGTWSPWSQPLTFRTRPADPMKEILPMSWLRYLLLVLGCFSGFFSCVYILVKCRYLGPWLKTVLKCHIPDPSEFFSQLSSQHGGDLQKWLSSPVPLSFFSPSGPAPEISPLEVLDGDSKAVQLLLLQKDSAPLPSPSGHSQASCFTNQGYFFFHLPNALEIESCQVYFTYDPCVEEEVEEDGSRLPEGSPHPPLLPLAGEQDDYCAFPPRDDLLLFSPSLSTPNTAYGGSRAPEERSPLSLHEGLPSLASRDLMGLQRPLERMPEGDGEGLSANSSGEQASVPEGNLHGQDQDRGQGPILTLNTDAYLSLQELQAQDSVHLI
T3 sequence (looked up) 3: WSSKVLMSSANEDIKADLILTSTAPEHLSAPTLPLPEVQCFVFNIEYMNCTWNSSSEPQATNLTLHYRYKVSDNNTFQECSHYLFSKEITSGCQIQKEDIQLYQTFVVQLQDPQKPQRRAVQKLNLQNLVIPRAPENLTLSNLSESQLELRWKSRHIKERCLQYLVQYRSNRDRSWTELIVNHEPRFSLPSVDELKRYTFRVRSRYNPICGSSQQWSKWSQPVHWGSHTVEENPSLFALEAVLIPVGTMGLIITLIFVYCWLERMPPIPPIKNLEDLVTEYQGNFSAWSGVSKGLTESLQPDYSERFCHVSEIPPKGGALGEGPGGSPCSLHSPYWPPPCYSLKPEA

[4] = molecular target: T2, IL-2Rαβγ (trimeric high-affinity IL-2 …); remark: listed apart in the source
[5] = molecular target: T1, IL-2Rβγ (dimeric intermediate affinity …); remark: listed apart in the source
[6] = molecular target: T3, IL-2-Rα/β/γ on the murine CTLL-2 T …; remark: listed apart in the source

B1: protein 6 (ligand)
chain: APTSSSTKKTQLQLEHLLLDLQMILNGINNYKNPKLTFGNSTKFYMPKKATELKHLQCLEEELKPLEEVLNLAQSKNFHLRPRDLISNINVIVLELKGSETTFMCEYADETATIVEFLNRWITFSQSIISTLT
modifications: glycosylated (same sequence with the N-glycosylation motif FGNST as protein 1f); glycan sites not analysed separately for protein 6
EC50, pSTAT5 MFI, CD8 (human PBMCs) [1]: 78.8 ng/mL
EC50, pSTAT5 MFI, NK (human PBMCs) [1]: 11.7 ng/mL
EC50, pSTAT5 MFI, Treg (human PBMCs) [2]: 38 ng/mL
ratio of Ratio protein 6 to Ratio protein 5a (EC50 CTLL-2 cells / EC50 HH cells) [3]: > 250
fold lower potency than 1d, pSTAT5, Tregs (human PBMCs) [4]: ~1900 fold
EC50 HH cells, STAT5 phosphorylation [5]: 0.0966 mg/L
EC50 CTLL-2, STAT5 phosphorylation [6]: 3.39 mg/L
Ratio (E50 CTLL-2 cells/EC50 HH cell) [6]: 35.1
